# Measurements taken from ChEMBL document CHEMBL1134058, “Phospho-Azatyrosine, a less effective protein-tyrosine phosphatase substrate than phosphotyrosine” (Bioorg Med Chem Lett, 2001).
# B1: Tyrosine-protein phosphatase non-receptor type 1 (Homo sapiens), P18031 (protein)
# chain: MEMEKEFEQIDKSGSWAAIYQDIRHEASDFPCRVAKLPKNKNRNRYRDVSPFDHSRIKLHQEDNDYINASLIKMEEAQRSYILTQGPLPNTCGHFWEMVWEQKSRGVVMLNRVMEKGSLKCAQYWPQKEEKEMIFEDTNLKLTLISEDIKSYYTVRQLELENLTTQETREILHFHYTTWPDFGVPESPASFLNFLFKVRESGSLSPEHGPVVVHCSAGIGRSGTFCLADTCLLLMDKRKDPSSVDIKKVLLEMRKFRMGLIQTADQLRFSYLAVIEGAKFIMGDSSVQDQWKELSHEDLEPPPEHIPPPPRPPKRILEPHNGKCREFFPNHQWVKEETQEDKDCPIKEEKGSPLNAAPYGIESMSQDTEVRSRVVGGSLRGAQAASPAKGEPSLPEKDEDHALSYWKPFLVNMCVATVLTAGAYLCYRFLFNSNT
# How the values were obtained:
# [1] = substrate: CC(=O)N[C@@H](CC(=O)O)C(=O)N[C@@H](C)C(=O)N[C@@H](CC(=O)O)C(=O)N[C@@H](CCC(=O)O)C(=O)N[C@@H](Cc1ccc(OP(=O)(O)O)cn1)C(=O)N[C@@H](CC(C)C)C(N)=O; test: (§1) Binding affinity constant against mammalian protein-tyrosine phosphatase 1 (PTP1)
# [2] = substrate: CC(=O)N[C@@H](CC(=O)O)C(=O)N[C@@H](C)C(=O)N[C@@H](CC(=O)O)C(=O)N[C@@H](CCC(=O)O)C(=O)N[C@@H](Cc1ccc(OP(=O)(O)O)cc1)C(=O)N[C@@H](CC(C)C)C(N)=O; test: as §1
protein,measurement,setting,value
B1,Km,[1],210 µM
same,Km,[2],3.6 µM
